Experimental findings from the supplement of paper PMC9732359 are described below.

The nature of the data set: protein stability index of a GFP-peptide fusion (yeast GPS) (PSI 1-4); higher = more stable; sorted into four equal gates, so the index is relative within each strain. In outline:
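The protein stability index combines read frequencies across sorting gates, each weighted by its gate number and then summed. To obtain those frequencies, a pooled yeast library of GFP fusions to tiled 17-residue yeast protein peptides, on a plasmid also expressing Cherry, was grown to mid-log phase in leucine-free medium. The cells were sorted into four equal gates by GFP/Cherry ratio before plasmid amplification by PCR and Illumina sequencing.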

± gives the uncertainty stated by the source.

For EYLFKPQLISDKFSPED [ARP7], the protein stability index reads like this: (doa10∆) 2.38 ± 0.053; (pdr5∆) 2.46 ± 0.042; (san1∆) 2.32 ± 0.056; (ubr1∆) 2.17 ± 0.041.
In turn, EYLKRVSVPVSGQKTNR [SIR3] showed a protein stability index (doa10∆) of 2.54 ± 0.1, a protein stability index (pdr5∆) of 2.52 ± 0.087, a protein stability index (san1∆) of 3.06 ± 0.13 and a protein stability index (ubr1∆) of 2.83 ± 0.16.
For EYMKRHPTTIESLREIP [SEC65], in that order: 3.25 ± 0.082, 3.21 ± 0.068, 3.17 ± 0.059 and 3.06 ± 0.06.
Take EYRDLYTNSVELRSLSK [YMR129W/POM152]: the protein stability index stood at 3.18 ± 0.082 (doa10∆), 3.27 ± 0.072 (pdr5∆), 3.24 ± 0.065 (san1∆) and 2.79 ± 0.29 (ubr1∆).
As to EYSDNFPVSLSQPSKKS [SIR4], the protein stability index amounted to 3.08 ± 0.045 (doa10∆), 3.05 ± 0.046 (pdr5∆), 2.98 ± 0.04 (san1∆) and 3.1 ± 0.031 (ubr1∆).
For FAEENITHKLTKNDAGS [BRR2], the protein stability index was 3.26 ± 0.084 (doa10∆), 3.22 ± 0.07 (pdr5∆), 2.88 ± 0.055 (san1∆) and 3.46 ± 0.1 (ubr1∆).
In the case of FAGEAGDTVQFAEYIQA [PRE1], the protein stability index is, setting by setting: (doa10∆) 1.72 ± 0.089; (pdr5∆) 1.74 ± 0.094; (san1∆) 1.75 ± 0.13; (ubr1∆) 2.09 ± 0.054.
For the sequence FAIRDDRDHINPDDLMK [RPT4], the protein stability index reads like this: (doa10∆) 2.65 ± 0.15; (pdr5∆) 2.99 ± 0.14; (san1∆) 3.51 ± 0.093; (ubr1∆) 3.33 ± 0.11.
The sequence FAQENSELAVATTSVMM [SRB6] registered a protein stability index (doa10∆) of 2.82 ± 0.13, a protein stability index (pdr5∆) of 3.13 ± 0.14, a protein stability index (san1∆) of 3.13 ± 0.07 and a protein stability index (ubr1∆) of 3.33 ± 0.11.
For the sequence FAQGKRRYDRKQSGFGG [RPL42A], the protein stability index runs as follows: (doa10∆) 3.6 ± 0.25; (pdr5∆) 3.57 ± 0.28; (san1∆) 3.06 ± 0.29; (ubr1∆) 3.34 ± 0.061.
With FASNKKINDESSIDKKS [YML103C/NUP188], the protein stability index runs as follows: (doa10∆) 2.5 ± 0.066; (pdr5∆) 2.92 ± 0.073; (san1∆) 2.64 ± 0.068; (ubr1∆) 3.14 ± 0.067.
The corresponding values for FATTKAECISLICSIGL [ECM29] are 1.5 ± 0.059, 1.97 ± 0.056, 1.65 ± 0.13 and 1.77 ± 0.05.
Regarding FAVIYLCDIDEVSDFDE [DIB1], the protein stability index reads like this: (doa10∆) 1.46 ± 0.13; (pdr5∆) 2.16 ± 0.1; (san1∆) 1.51 ± 0.17; (ubr1∆) 1.64 ± 0.14.
As for FDEFMNVVIDEAVEIPV [SME1], the protein stability index is, setting by setting: (doa10∆) 2.86 ± 0.056; (pdr5∆) 3.19 ± 0.066; (san1∆) 2.94 ± 0.071; (ubr1∆) 2.9 ± 0.045.
FDIYNRDRKLITDKGTV [YJL039C/NUP192]: the protein stability index reads like this: (doa10∆) 3.18 ± 0.13; (pdr5∆) 2.53 ± 0.093; (san1∆) 2.86 ± 0.11; (ubr1∆) 2.96 ± 0.083.
For FDPFQAVSRSMTDIWNT [ECM29], in that order: 2.81 ± 0.087, 2.73 ± 0.07, 2.85 ± 0.062 and 2.75 ± 0.071.
On to FDQSTNVKVIMATNRAD [RPT3], for which the protein stability index is, setting by setting: (doa10∆) 2.12 ± 0.054; (pdr5∆) 2.15 ± 0.053; (san1∆) 1.52 ± 0.074; (ubr1∆) 2.02 ± 0.051.
For FDRHCNMVLENVKELWT [SMD2], the protein stability index runs as follows: (doa10∆) 2.37 ± 0.081; (pdr5∆) 2.38 ± 0.088; (san1∆) 1.84 ± 0.1; (ubr1∆) 2.03 ± 0.1.
FDYMNRYWVQKERSDGK [CDC53]: the protein stability index is 2.26 ± 0.16 (doa10∆), 2.39 ± 0.21 (san1∆) and 2.57 ± 0.18 (ubr1∆).
The sequence FEDQVTNILTKVDINAD [PRP28] gave a protein stability index (doa10∆) of 3.19 ± 0.2 and a protein stability index (san1∆) of 3.2 ± 0.18.
On to FEEDEKNSDVWFLDHNY [RPN8], for which the protein stability index was 2.7 ± 0.077 (doa10∆), 1.73 ± 0.073 (pdr5∆), 1.5 ± 0.14 (san1∆) and 1.48 ± 0.084 (ubr1∆).
As to FEGCYYTPEESAWIWPM [RPC25], the protein stability index reads like this: (pdr5∆) 2.3 ± 0.21; (san1∆) 2.55 ± 0.2; (ubr1∆) 2.52 ± 0.13.
With FEGNALIRRLVRVGVLS [RPS9A], the protein stability index reads like this: (doa10∆) 2.44 ± 0.1; (pdr5∆) 2.52 ± 0.18; (ubr1∆) 1.15 ± 0.17.
Turning to FEGVTHRWGTKKLPRKT [RPL3], the protein stability index (doa10∆) is 3.31 ± 0.11, the protein stability index (pdr5∆) turned out to be 2.98 ± 0.13, the protein stability index (san1∆) is 3.11 ± 0.082 and the protein stability index (ubr1∆) worked out at 3.34 ± 0.061.
With FEIIDEASKKSAVKPRP [FAS1], the protein stability index (doa10∆) turned out to be 3.21 ± 0.13, the protein stability index (pdr5∆) was 3.28 ± 0.14, the protein stability index (san1∆) came out at 3.45 ± 0.064 and the protein stability index (ubr1∆) was 3.3 ± 0.066.
With FEIQGVPPMKLAYSKIV [YMR129W/POM152], the protein stability index came out at 1.59 ± 0.074 (doa10∆), 2.01 ± 0.063 (pdr5∆), 1.53 ± 0.1 (san1∆) and 1.74 ± 0.062 (ubr1∆).
